Test results reported in paper PMC10799922.

Experiments:
[1] = target: 3C8 iAb_(aff1) Fab (anti-OX40 clone 3C8 engrafted with the iAb_(aff1) residue set, expressed as a monomeric Fab); test: AUC; sedimentation velocity; 3C8 iAb_(aff1) Fab at 0.6, 0.2 and 0.07 mg/ml in 25 mM histidine acetate pH 5.5, 150 mM NaCl; 20 °C, 50,000 RPM; global fit to a monomer-dimer equilibrium model (dimer to monomers)
[2] = target: 3C8 iAb_(aff1) Fab (anti-OX40 clone 3C8 engrafted with the iAb_(aff1) residue set, expressed as a monomeric Fab)

B1: 3C8 iAb_(aff1) Fab (anti-OX40 clone 3C8 engrafted with the iAb_(aff1) residue set, expressed as a monomeric Fab) (Fab, V domains shown)
VH: EVQLVQSGAEVKKPGATVVVLCKASGYAFTNYLIEWVRQAPGQGLEWIGVINPGSGDTYYSEKFKGRVTLFADTSTSQAILILTSLRSEDTAVYYCARDRLDYWGQGTLVTVSS
VL: DIQMTQSPSSLSASVGDRVTITCHASQDISSYIVWYQQKPGKSFKGLIYHGTNLESGVPSRFSGSGSGTDFTLTISSLQPEDFATYYCVHYAQFPYTFGQGTKVEIK
Kd [1]: 6.8 µM | stoichiometry N [1]: 2 | OX40 agonism of the monomeric Fab in Jurkat OX40 NF-kB luciferase reporter cells; EC50 against the full-length iAb (aff1) IgG [2]: 100 fold
